Measured values as given in US20110112279A1 (Genentech, published 2011).

Experiments:
[1] = target: T1, human STOP-1, full length, C-terminal 8xHis tag (h762HIP; M1-K243-His), expressed in CHO-psgb cells (human, UniProt Q96CG8 31-243); assay: solution competition phage ELISA (762 S/F): short form coated, phage pre-incubated with full length STOP-1 in solution; IC50 is the STOP-1 concentration
T1 construct: The secreted protein purified from medium lacks the signal peptide; Light scattering: about 58% hexamer and 42% trimer; also called UNQ762; full length form
T1 sequence (Q96CG8 other isoform, or with tags, fused parts or gaps limits assumed): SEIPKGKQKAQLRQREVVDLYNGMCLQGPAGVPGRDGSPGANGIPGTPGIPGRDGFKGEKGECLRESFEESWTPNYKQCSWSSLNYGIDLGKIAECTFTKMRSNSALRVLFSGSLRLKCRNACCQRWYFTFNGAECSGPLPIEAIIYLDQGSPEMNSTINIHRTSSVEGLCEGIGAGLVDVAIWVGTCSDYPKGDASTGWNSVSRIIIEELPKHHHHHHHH
Experimental: (§1) The wells were blocked by adding 65 ul 1% BSA for 30 minutes followed by 40 ul 1% Tween20 for another 30 minutes. Next, the wells were washed with PBS—0.05% Tween20 5 times. Various dilutions of F(ab) or F(ab)′₂ phage down to 0.1 O.D./ml in ELISA buffer (PBS—0.1% BSA and 0.05% Tween20) were added to the wells for 15 minutes at room temperature. The wells were then washed with PBS—0.05% Tween20 at least three times. 75 ul of HRP-conjugated anti-M13 antibody (Amersham, 1/5000 dilution with ELISA buffer) per well was added and incubated at room temperature for 30 minutes. The wells were washed again with PBS—0.05% Tween20 at least five times. Next, 100 ul/well of a 1:1 ratio of 3,3′,5,5′-tetramethylbenzidine (TMB) Peroxidase substrate and Peroxidase Solution B (H₂O₂) ((Kirkegaard-Perry Laboratories (Gaithersburg, Md.)) was added to the well and incubated for 5 minutes at room temperature. The reaction was stopped by adding 100 ul 1M Phosphoric Acid (H3PO₄) ((Kirkegaard-Perry Laboratories (Gaithersburg, Md.)) to each well. The optical density of the color in each well was determined using a standard ELISA plate reader at 450 nm. The dilutions of phage were plotted against the O.D. readings.
Third, a competition ELISA was performed. 96-well Nunc Maxisorp plates were coated with full length or short form human STOP-1 (2 ug/ml in PBS) at 4° C. overnight or at room temperature for 2 hours. The wells were blocked by adding 65 ul 1% BSA for 30 minutes followed by 40 ul 1% Tween20 for another 30 minutes. The wells were washed with PBS—0.05% Tween20 5 times. […] The unbound phage was assayed by transferring 75 ul of the well mixture to second 96-well plate pre-coated with full length or short form human STOP-1 and incubating at room temperature for 15 minutes. The wells of the second plate were washed with PBS—0.5% Tween20 at least three times. 75 ul of HRP-conjugated anti-M13 antibody ( 1/5000 dilution with ELISA buffer) per well was added and incubated at room temperature for 30 minutes. The wells were washed again with PBS—0.05% Tween20 at least five times.

[2] = target: T2, human STOP-1 short form (L94-K243) with C-terminal His tag, baculovirus expressed (human, UniProt Q96CG8 94-243); assay: solution competition phage ELISA (762 S/S), short form coated and short form as competitor; ND = not detectable
T2 construct: also called #94-243; L94-K243-His
T2 sequence (Q96CG8 94-243): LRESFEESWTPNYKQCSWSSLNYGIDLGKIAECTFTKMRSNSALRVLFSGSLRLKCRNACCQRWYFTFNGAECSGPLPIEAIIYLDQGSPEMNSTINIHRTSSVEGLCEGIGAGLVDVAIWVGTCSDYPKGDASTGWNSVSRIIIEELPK
Experimental: as §1
Third, a competition ELISA was performed. 96-well Nunc Maxisorp plates were coated with full length or short form human STOP-1 (2 ug/ml in PBS) at 4° C. overnight or at room temperature for 2 hours. […]

B1: F5 F(ab)'2 displayed on M13 phage (V0350-4-F5) (other)
light: SDIQMTQSPSSLSASVGDRVTITCRASQDVSTAVAWYQQKPGKAPKLLIYSASFLYSGVPSRFSGSGSGTDFTLTISSLQPEDFATYYCQQSYTTPPTFGQGTKVEIKRTVAAPSVFIFPPSDEQLKSGTASVVCLLNNFYPREAKVQWKVDNALQSGNSQESVTEQDSKDSTYSLSSTLTLSKADYEKHKVYACEVTHQGLSSPVTKSFNRGECGASSGMADPNRFRGKDLA
heavy: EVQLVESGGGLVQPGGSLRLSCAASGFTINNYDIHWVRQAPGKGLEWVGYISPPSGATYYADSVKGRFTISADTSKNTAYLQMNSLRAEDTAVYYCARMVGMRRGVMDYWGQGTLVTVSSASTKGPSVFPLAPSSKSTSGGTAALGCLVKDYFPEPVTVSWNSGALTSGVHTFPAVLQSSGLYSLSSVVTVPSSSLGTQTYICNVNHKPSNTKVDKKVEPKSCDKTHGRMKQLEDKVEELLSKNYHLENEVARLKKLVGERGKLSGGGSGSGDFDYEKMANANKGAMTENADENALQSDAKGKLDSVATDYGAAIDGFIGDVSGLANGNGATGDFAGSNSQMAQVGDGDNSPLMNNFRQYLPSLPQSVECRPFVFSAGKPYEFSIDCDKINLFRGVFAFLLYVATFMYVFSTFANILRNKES
notes: also called F5-F(ab)'2-phage; F(ab)'2-F5 phage
- IC50 [1]: 1000 nM
- binding result [2]: no binding (tested: 0.1 to 500 nM competitor)
